# Assay results as given in patent US7098310B1, “Heterodimers of retinoid X receptors (RXRS) and other steroid hormone receptors” (Ligand Pharmaceuticals, priority 1991, dated 2006).
# T1: thyroid hormone receptor TRβ (human, UniProt P10828 1-461)
# T1 construct: mature; In vitro translated; also called TR-B; c-erb-A-B
# T1 sequence (looked up): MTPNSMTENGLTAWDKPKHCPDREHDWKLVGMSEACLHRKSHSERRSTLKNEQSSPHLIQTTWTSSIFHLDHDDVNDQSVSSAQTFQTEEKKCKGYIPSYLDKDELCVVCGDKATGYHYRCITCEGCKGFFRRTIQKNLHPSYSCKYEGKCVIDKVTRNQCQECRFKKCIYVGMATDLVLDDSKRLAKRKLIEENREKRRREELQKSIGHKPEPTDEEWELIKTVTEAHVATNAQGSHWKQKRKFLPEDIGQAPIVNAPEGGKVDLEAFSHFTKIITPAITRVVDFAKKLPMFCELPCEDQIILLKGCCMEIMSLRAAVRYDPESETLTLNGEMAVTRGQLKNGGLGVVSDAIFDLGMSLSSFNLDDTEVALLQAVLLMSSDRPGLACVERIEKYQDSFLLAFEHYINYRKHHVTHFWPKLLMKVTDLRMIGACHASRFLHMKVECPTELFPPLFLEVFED
# T2: retinoid x receptor (RXRα) (human, UniProt P19793 1-462)
# T2 construct: mature; In vitro translated full length receptor; 35S-labelled in the column and immunoprecipitation experiments
# T2 sequence (looked up): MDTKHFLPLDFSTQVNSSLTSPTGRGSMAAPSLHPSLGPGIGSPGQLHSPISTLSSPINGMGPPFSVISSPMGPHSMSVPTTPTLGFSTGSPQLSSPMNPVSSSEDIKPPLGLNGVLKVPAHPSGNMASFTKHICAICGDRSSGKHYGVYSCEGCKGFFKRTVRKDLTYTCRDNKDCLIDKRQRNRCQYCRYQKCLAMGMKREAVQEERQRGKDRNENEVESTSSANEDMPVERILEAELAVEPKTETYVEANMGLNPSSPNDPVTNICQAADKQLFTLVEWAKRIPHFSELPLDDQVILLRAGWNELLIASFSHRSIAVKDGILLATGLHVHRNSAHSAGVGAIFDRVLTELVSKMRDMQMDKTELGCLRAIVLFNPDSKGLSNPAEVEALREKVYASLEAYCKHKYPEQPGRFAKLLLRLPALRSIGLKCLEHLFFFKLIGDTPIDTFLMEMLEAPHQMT
# T3: retinoic acid receptor RARβ (UniProt P10826 1-455, limits assumed)
# T3 construct: mature; In vitro translated
# T3 sequence (looked up): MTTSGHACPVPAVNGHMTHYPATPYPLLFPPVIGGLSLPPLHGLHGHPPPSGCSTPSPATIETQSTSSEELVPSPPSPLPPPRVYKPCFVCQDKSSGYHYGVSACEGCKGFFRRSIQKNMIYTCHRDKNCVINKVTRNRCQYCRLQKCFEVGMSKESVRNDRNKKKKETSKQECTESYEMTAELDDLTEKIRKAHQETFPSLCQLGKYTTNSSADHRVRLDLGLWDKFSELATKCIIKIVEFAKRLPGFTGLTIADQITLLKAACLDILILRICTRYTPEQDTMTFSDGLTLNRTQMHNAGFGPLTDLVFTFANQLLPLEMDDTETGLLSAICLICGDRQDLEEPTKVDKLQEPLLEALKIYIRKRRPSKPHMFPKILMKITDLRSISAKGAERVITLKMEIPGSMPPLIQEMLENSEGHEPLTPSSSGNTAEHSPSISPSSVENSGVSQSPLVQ
# T4: retinoic acid receptor RARα (UniProt P10276 1-462, limits assumed)
# T4 construct: mature; In vitro translated
# T4 sequence (looked up): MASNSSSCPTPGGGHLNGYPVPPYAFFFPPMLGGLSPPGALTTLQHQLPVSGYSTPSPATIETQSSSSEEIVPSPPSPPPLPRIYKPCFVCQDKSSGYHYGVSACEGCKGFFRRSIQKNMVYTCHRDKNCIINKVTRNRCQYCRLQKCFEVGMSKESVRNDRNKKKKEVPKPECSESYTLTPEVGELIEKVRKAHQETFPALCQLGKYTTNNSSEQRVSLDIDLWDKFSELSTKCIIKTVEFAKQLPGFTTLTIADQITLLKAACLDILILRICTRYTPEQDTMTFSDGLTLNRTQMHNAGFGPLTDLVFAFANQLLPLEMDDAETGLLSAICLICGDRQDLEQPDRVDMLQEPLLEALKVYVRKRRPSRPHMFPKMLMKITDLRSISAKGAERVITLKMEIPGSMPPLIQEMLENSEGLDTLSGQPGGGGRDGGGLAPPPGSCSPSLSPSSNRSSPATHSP
# T5: retinoic acid receptor RARγ (UniProt P13631 1-454, limits assumed)
# T5 construct: mature; In vitro translated
# T5 sequence (looked up): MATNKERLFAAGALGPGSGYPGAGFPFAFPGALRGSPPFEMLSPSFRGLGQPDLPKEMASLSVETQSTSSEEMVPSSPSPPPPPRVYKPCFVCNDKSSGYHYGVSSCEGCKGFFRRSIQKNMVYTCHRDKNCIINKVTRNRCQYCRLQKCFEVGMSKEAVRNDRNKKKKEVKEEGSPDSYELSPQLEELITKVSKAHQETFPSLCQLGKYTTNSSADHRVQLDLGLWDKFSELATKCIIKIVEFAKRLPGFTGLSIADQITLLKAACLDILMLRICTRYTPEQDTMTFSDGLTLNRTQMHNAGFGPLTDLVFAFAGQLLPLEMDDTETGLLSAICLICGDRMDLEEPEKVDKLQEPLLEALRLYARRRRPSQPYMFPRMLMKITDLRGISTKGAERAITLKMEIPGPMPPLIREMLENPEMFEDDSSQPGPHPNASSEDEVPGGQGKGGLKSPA
# B1: RXRαm3 (receptor, human, UniProt P19793 28-462, looked up)
# chain: MAAPSLHPSLGPGIGSPGQLHSPISTLSSPINGMGPPFSVISSPMGPHSMSVPTTPTLGFSTGSPQLSSPMNPVSSSEDIKPPLGLNGVLKVPAHPSGNMASFTKHICAICGDRSSGKHYGVYSCEGCKGFFKRTVRKDLTYTCRDNKDCLIDKRQRNRCQYCRYQKCLAMGMKREAVQEERQRGKDRNENEVESTSSANEDMPVERILEAELAVEPKTETYVEANMGLNPSSPNDPVTNICQAADKQLFTLVEWAKRIPHFSELPLDDQVILLRAGWNELLIASFSHRSIAVKDGILLATGLHVHRNSAHSAGVGAIFDRVLTELVSKMRDMQMDKTELGCLRAIVLFNPDSKGLSNPAEVEALREKVYASLEAYCKHKYPEQPGRFAKLLLRLPALRSIGLKCLEHLFFFKLIGDTPIDTFLMEMLEAPHQMT
# notes: range 28-C-terminus
# B2: RXRαm4 (receptor, human, UniProt P19793 61-462, looked up)
# chain: MGPPFSVISSPMGPHSMSVPTTPTLGFSTGSPQLSSPMNPVSSSEDIKPPLGLNGVLKVPAHPSGNMASFTKHICAICGDRSSGKHYGVYSCEGCKGFFKRTVRKDLTYTCRDNKDCLIDKRQRNRCQYCRYQKCLAMGMKREAVQEERQRGKDRNENEVESTSSANEDMPVERILEAELAVEPKTETYVEANMGLNPSSPNDPVTNICQAADKQLFTLVEWAKRIPHFSELPLDDQVILLRAGWNELLIASFSHRSIAVKDGILLATGLHVHRNSAHSAGVGAIFDRVLTELVSKMRDMQMDKTELGCLRAIVLFNPDSKGLSNPAEVEALREKVYASLEAYCKHKYPEQPGRFAKLLLRLPALRSIGLKCLEHLFFFKLIGDTPIDTFLMEMLEAPHQMT
# notes: range 61-462; 35S-labelled in the column experiment; also called mutant RXRαm4
# B3: TRαm2 (receptor, UniProt P63059-2 1-213, looked up)
# chain: MEQKPSKVECGSDPEENSARSPDGKRKRKNGQCPLKSSMSGYIPSYLDKDEQCVVCGDKATGYHYRCITCEGCKGFFRRTIQKNLHPTYSCKYDSCCVIDKITRNQCQLCRFKKCIAVGMAMDLVLDDSKRVAKRKLIEQNRERRRKEEMIRSLQQRPEPTPEEWDLIHVATEAHRSTNAQGSHWKQRRKFLPDDIGQSPIVSMPDGDKVDLE
# notes: In vitro translated deletion mutant
# B4: TRαm3 (receptor, UniProt P63059-2 1-167, looked up)
# chain: MEQKPSKVECGSDPEENSARSPDGKRKRKNGQCPLKSSMSGYIPSYLDKDEQCVVCGDKATGYHYRCITCEGCKGFFRRTIQKNLHPTYSCKYDSCCVIDKITRNQCQLCRFKKCIAVGMAMDLVLDDSKRVAKRKLIEQNRERRRKEEMIRSLQQRPEPTPEEWDL
# notes: as for B3
# B5: RARγm1 (receptor, UniProt P13631 1-352, looked up)
# chain: MATNKERLFAAGALGPGSGYPGAGFPFAFPGALRGSPPFEMLSPSFRGLGQPDLPKEMASLSVETQSTSSEEMVPSSPSPPPPPRVYKPCFVCNDKSSGYHYGVSSCEGCKGFFRRSIQKNMVYTCHRDKNCIINKVTRNRCQYCRLQKCFEVGMSKEAVRNDRNKKKKEVKEEGSPDSYELSPQLEELITKVSKAHQETFPSLCQLGKYTTNSSADHRVQLDLGLWDKFSELATKCIIKIVEFAKRLPGFTGLSIADQITLLKAACLDILMLRICTRYTPEQDTMTFSDGLTLNRTQMHNAGFGPLTDLVFAFAGQLLPLEMDDTETGLLSAICLICGDRMDLEEPEKVDK
# notes: In vitro translated deletion mutant; also called RARγml
# B6: RXRαm1 (receptor, human, UniProt P19793 1-402, looked up)
# chain: MDTKHFLPLDFSTQVNSSLTSPTGRGSMAAPSLHPSLGPGIGSPGQLHSPISTLSSPINGMGPPFSVISSPMGPHSMSVPTTPTLGFSTGSPQLSSPMNPVSSSEDIKPPLGLNGVLKVPAHPSGNMASFTKHICAICGDRSSGKHYGVYSCEGCKGFFKRTVRKDLTYTCRDNKDCLIDKRQRNRCQYCRYQKCLAMGMKREAVQEERQRGKDRNENEVESTSSANEDMPVERILEAELAVEPKTETYVEANMGLNPSSPNDPVTNICQAADKQLFTLVEWAKRIPHFSELPLDDQVILLRAGWNELLIASFSHRSIAVKDGILLATGLHVHRNSAHSAGVGAIFDRVLTELVSKMRDMQMDKTELGCLRAIVLFNPDSKGLSNPAEVEALREKVYASLEA
# notes: range: lacks the carboxyterminal 60 amino acids; In vitro translated deletion mutant
# B7: RXRαm5 (receptor, human, UniProt P19793 198-462, looked up)
# chain: MGMKREAVQEERQRGKDRNENEVESTSSANEDMPVERILEAELAVEPKTETYVEANMGLNPSSPNDPVTNICQAADKQLFTLVEWAKRIPHFSELPLDDQVILLRAGWNELLIASFSHRSIAVKDGILLATGLHVHRNSAHSAGVGAIFDRVLTELVSKMRDMQMDKTELGCLRAIVLFNPDSKGLSNPAEVEALREKVYASLEAYCKHKYPEQPGRFAKLLLRLPALRSIGLKCLEHLFFFKLIGDTPIDTFLMEMLEAPHQMT
# B8: RXRαm6 (receptor, human, UniProt P19793 1-462, looked up)
# chain: MDTKHFLPLDFSTQVNSSLTSPTGRGSMGMKREAVQEERQRGKDRNENEVESTSSANEDMPVERILEAELAVEPKTETYVEANMGLNPSSPNDPVTNICQAADKQLFTLVEWAKRIPHFSELPLDDQVILLRAGWNELLIASFSHRSIAVKDGILLATGLHVHRNSAHSAGVGAIFDRVLTELVSKMRDMQMDKTELGCLRAIVLFNPDSKGLSNPAEVEALREKVYASLEAYCKHKYPEQPGRFAKLLLRLPALRSIGLKCLEHLFFFKLIGDTPIDTFLMEMLEAPHQMT
# notes: as for B3
# Experiments:
# [1] = molecular target: T1, thyroid hormone receptor TRβ; test: gel retardation, 32P palindromic TRE (data not shown)
# [2] = molecular target: T2, retinoid x receptor (RXRα); test: gel retardation, 32P palindromic TRE, in vitro translated receptors
# Method: (§1) After incubation at room temperature for 45 minutes, the effect of antibody on slow migrating complexes was analyzed by gel retardation using ^32-labelled palindromic TRE as a probe. As a control, receptor mixtures were also incubated with preimmune serum (NI).
# (§2) In vitro translated receptor protein (1 to 5 µl depending on the translation efficiency) was incubated with the ^32P-labeled oligonucleotides in a 20-µl reaction mixture containing 10 mM hepes buffer, pH 7.9, 50 mM KCl, 1 mM DTT, 2.5 mM MgCl, 10% glycerol, and 1 µg of poly(dI-dC) at 25° C. for 20 minutes. In general, relative low receptor concentration was used to obtain the clear effect of heterodimer formation. The reaction mixture was then loaded on a 5% nondenaturing polyacrylamide gel containing 0.5× TBE (1×TBE=0.089 M TRIS-borate, 0.089 M boric acid, and 0.002 M EDTA). […] When antibody was used, 1 µl of the antiserum was incubated with the specific translation products at room temperature for 45 minutes before performing the experiments described above.
# [3] = molecular target: T3, retinoic acid receptor RARβ; test: gel retardation, 32P palindromic TRE (data not shown)
# [4] = molecular target: T4, retinoic acid receptor RARα; test: as above
# [5] = molecular target: T5, retinoic acid receptor RARγ; test: gel retardation, 32P palindromic TRE, in vitro translated receptors
# Method: as §1, §2
Binder,binding result [1],binding result [2],binding result [5],further results
B1,binds,–,–,–
B2,binds,–,–,–
B3,–,no binding,–,–
B4,–,no binding,–,–
B5,–,no binding,–,–
B6,no binding,–,no binding,binding result [3]: no binding; binding result [4]: no binding
B7,–,–,no binding,–
B8,–,–,no binding,–
